US20240132485A1, “HETEROCYCLIC CULLIN RING UBIQUITIN LIGASE COMPOUNDS AND USES THEREOF” (CEMM - FORSCHUNGSZENTRUM FÜR MOLEKULARE MEDIZIN GMBH, priority 2020, published 2024)

What was measured:
[1] = target: Nanoluc_DDB1 (N-terminal Nanoluc luciferase, G4S linker, DDB1 (FL)) (UniProt Q16531); assay: NanoBRET in HEK293T cells, 10 µM compound Example 3-18; class C = 2-3 fold increase
[2] = target: Nanoluc_DDB1 (N-terminal Nanoluc luciferase, G4S linker, DDB1 (FL)) (UniProt Q16531); assay: NanoBRET in HEK293T cells, 10 µM compound Example 3-24; class B = 3-4 fold increase
[3] = target: Nanoluc_DDB1 (N-terminal Nanoluc luciferase, G4S linker, DDB1 (FL)) (UniProt Q16531); assay: NanoBRET in HEK293T cells, 10-point titration of compound Example 3-53; class E = >10 µM
[4] = target: Nanoluc_DDB1 (N-terminal Nanoluc luciferase, G4S linker, DDB1 (FL)) (UniProt Q16531); assay: NanoBRET in HEK293T cells, 10 µM compound Example 3-6; class C = 2-3 fold increase
[5] = target: Nanoluc_DDB1 (N-terminal Nanoluc luciferase, G4S linker, DDB1 (FL)) (UniProt Q16531); assay: NanoBRET in HEK293T cells, 10 µM compound Example 3-51; class B = 3-4 fold increase
[6] = target: Nanoluc_DDB1 (N-terminal Nanoluc luciferase, G4S linker, DDB1 (FL)) (UniProt Q16531); assay: NanoBRET in HEK293T cells, 10-point titration of compound Example 3-44; class A = EC50<=0.25 µM
[7] = target: Nanoluc_DDB1 (N-terminal Nanoluc luciferase, G4S linker, DDB1 (FL)) (UniProt Q16531); assay: NanoBRET in HEK293T cells, 10 µM compound Example 3-7; class B = 3-4 fold increase
[8] = target: Nanoluc_DDB1 (N-terminal Nanoluc luciferase, G4S linker, DDB1 (FL)) (UniProt Q16531); assay: NanoBRET in HEK293T cells, 10-point titration of compound Example 3-35; class A = EC50<=0.25 µM
[9] = target: Nanoluc_DDB1 (N-terminal Nanoluc luciferase, G4S linker, DDB1 (FL)) (UniProt Q16531); assay: NanoBRET in HEK293T cells, 10-point titration of compound Example 3-59; class E = >10 µM
[10] = target: Nanoluc_DDB1 (N-terminal Nanoluc luciferase, G4S linker, DDB1 (FL)) (UniProt Q16531); assay: NanoBRET in HEK293T cells, 10 µM compound Example 3-19; class A = greater than 4-fold increase
[11] = target: Nanoluc_DDB1 (N-terminal Nanoluc luciferase, G4S linker, DDB1 (FL)) (UniProt Q16531); assay: NanoBRET in HEK293T cells, 10 µM compound Example 3-60; class C = 2-3 fold increase
[12] = target: Nanoluc_DDB1 (N-terminal Nanoluc luciferase, G4S linker, DDB1 (FL)) (UniProt Q16531); assay: NanoBRET in HEK293T cells, 10 µM compound Example 3-16; class C = 2-3 fold increase
[13] = target: Nanoluc_DDB1 (N-terminal Nanoluc luciferase, G4S linker, DDB1 (FL)) (UniProt Q16531); assay: NanoBRET in HEK293T cells, 10 µM compound Example 3-30; class C = 2-3 fold increase
[14] = target: Nanoluc_DDB1 (N-terminal Nanoluc luciferase, G4S linker, DDB1 (FL)) (UniProt Q16531); assay: NanoBRET in HEK293T cells, 10 µM compound Example 3-66; class A = greater than 4-fold increase
[15] = target: Nanoluc_DDB1 (N-terminal Nanoluc luciferase, G4S linker, DDB1 (FL)) (UniProt Q16531); assay: NanoBRET in HEK293T cells, 10 µM compound Example 3-5; class B = 3-4 fold increase
[16] = target: Nanoluc_DDB1 (N-terminal Nanoluc luciferase, G4S linker, DDB1 (FL)) (UniProt Q16531); assay: NanoBRET in HEK293T cells, 10 µM compound Example 3-21; class B = 3-4 fold increase
[17] = target: Nanoluc_DDB1 (N-terminal Nanoluc luciferase, G4S linker, DDB1 (FL)) (UniProt Q16531); assay: NanoBRET in HEK293T cells, 10 µM compound Example 3-11; class A = greater than 4-fold increase
[18] = target: Nanoluc_DDB1 (N-terminal Nanoluc luciferase, G4S linker, DDB1 (FL)) (UniProt Q16531); assay: NanoBRET in HEK293T cells, 10 µM compound Example 3-3; class D = 1-2 fold increase
[19] = target: Nanoluc_DDB1 (N-terminal Nanoluc luciferase, G4S linker, DDB1 (FL)) (UniProt Q16531); assay: NanoBRET in HEK293T cells, 10 µM compound Example 3-4; class A = greater than 4-fold increase
[20] = target: Nanoluc_DDB1 (N-terminal Nanoluc luciferase, G4S linker, DDB1 (FL)) (UniProt Q16531); assay: NanoBRET in HEK293T cells, 10-point titration of compound Example 3-4; class A = EC50<=0.25 µM
[21] = target: Nanoluc_DDB1 (N-terminal Nanoluc luciferase, G4S linker, DDB1 (FL)) (UniProt Q16531); assay: NanoBRET in HEK293T cells, 10 µM compound Example 3-12; class D = 1-2 fold increase
[22] = target: Nanoluc_DDB1 (N-terminal Nanoluc luciferase, G4S linker, DDB1 (FL)) (UniProt Q16531); assay: NanoBRET in HEK293T cells, 10 µM compound Example 3-59; class C = 2-3 fold increase
[23] = target: Nanoluc_DDB1 (N-terminal Nanoluc luciferase, G4S linker, DDB1 (FL)) (UniProt Q16531); assay: NanoBRET in HEK293T cells, 10 µM compound Example 3-57; class B = 3-4 fold increase
[24] = target: Nanoluc_DDB1 (N-terminal Nanoluc luciferase, G4S linker, DDB1 (FL)) (UniProt Q16531); assay: NanoBRET in HEK293T cells, 10 µM compound Example 3-26; class C = 2-3 fold increase
[25] = target: Nanoluc_DDB1 (N-terminal Nanoluc luciferase, G4S linker, DDB1 (FL)) (UniProt Q16531); assay: NanoBRET in HEK293T cells, 10 µM compound Example 3-54; class C = 2-3 fold increase
[26] = target: Nanoluc_DDB1 (N-terminal Nanoluc luciferase, G4S linker, DDB1 (FL)) (UniProt Q16531); assay: NanoBRET in HEK293T cells, 10-point titration of compound Example 3-63; class E = >10 µM

Chain of Nanoluc_DDB1 (N-terminal Nanoluc luciferase, G4S linker, DDB1 (FL)) (Q16531 other isoform, or with tags, fused parts or gaps): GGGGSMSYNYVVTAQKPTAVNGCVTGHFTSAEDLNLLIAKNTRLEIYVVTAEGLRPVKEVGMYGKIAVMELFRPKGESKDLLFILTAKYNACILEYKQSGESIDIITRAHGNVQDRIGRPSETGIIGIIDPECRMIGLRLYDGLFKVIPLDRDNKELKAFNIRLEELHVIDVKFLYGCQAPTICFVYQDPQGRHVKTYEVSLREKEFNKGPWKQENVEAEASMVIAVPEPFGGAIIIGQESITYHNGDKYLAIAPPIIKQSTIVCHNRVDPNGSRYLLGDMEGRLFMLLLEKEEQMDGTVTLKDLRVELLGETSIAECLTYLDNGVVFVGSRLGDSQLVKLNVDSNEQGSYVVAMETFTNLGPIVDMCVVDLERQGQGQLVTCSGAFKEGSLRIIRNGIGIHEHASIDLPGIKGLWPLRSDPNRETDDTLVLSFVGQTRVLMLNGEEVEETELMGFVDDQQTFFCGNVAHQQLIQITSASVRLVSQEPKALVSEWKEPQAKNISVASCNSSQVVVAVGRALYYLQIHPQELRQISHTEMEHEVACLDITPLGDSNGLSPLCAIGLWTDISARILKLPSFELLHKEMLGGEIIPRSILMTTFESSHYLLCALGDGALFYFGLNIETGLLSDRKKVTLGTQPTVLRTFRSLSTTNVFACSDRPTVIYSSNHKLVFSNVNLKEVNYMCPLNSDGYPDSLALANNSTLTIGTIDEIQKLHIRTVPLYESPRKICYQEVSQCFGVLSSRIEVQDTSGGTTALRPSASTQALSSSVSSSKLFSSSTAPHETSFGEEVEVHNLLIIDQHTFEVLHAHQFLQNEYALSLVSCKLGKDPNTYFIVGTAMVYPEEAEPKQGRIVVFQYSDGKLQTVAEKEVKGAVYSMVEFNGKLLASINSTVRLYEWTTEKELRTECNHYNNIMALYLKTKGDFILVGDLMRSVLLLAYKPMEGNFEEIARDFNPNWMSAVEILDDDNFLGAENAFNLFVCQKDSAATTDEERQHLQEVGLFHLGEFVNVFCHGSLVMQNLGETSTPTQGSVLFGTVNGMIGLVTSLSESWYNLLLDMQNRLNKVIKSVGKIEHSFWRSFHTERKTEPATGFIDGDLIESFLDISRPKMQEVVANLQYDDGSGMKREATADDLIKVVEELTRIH

Substance: HaloTag_CDK12 (N-terminal HaloTag, G4S linker, CDK12 (713-1052)) (from UniProt Q9NYV4 713-1052) (enzyme)
- NanoBRET fold increase [1]: 2 to 3 fold
- NanoBRET fold increase [2]: 3 to 4 fold
- EC50 [3]: > 10 µM
- NanoBRET fold increase [4]: 2 to 3 fold
- NanoBRET fold increase [5]: 3 to 4 fold
- EC50 [6]: < 0.25 µM
- NanoBRET fold increase [7]: 3 to 4 fold
- EC50 [8]: < 0.25 µM
- EC50 [9]: > 10 µM
- NanoBRET fold increase [10]: > 4 fold
- NanoBRET fold increase [11]: 2 to 3 fold
- NanoBRET fold increase [12]: 2 to 3 fold
- NanoBRET fold increase [13]: 2 to 3 fold
- NanoBRET fold increase [14]: > 4 fold
- NanoBRET fold increase [15]: 3 to 4 fold
- NanoBRET fold increase [16]: 3 to 4 fold
- NanoBRET fold increase [17]: > 4 fold
- NanoBRET fold increase [18]: 1 to 2 fold
- NanoBRET fold increase [19]: > 4 fold
- EC50 [20]: < 0.25 µM
- NanoBRET fold increase [21]: 1 to 2 fold
- NanoBRET fold increase [22]: 2 to 3 fold
- NanoBRET fold increase [23]: 3 to 4 fold
- NanoBRET fold increase [24]: 2 to 3 fold
- NanoBRET fold increase [25]: 2 to 3 fold
- EC50 [26]: > 10 µM
